The values that follow come from article doi:10.1101/2024.07.01.601590.

For this experiment, the target named is Fluorescently labelled Asgard ESCRT-IIIB (Heimdallarchaeota archaeon AB_125), full length (Heimdallarchaeota archaeon AB_125). As to the kind of experiment: TIRF microscopy on supported lipid bilayers.

On to “Fluorescently labelled Asgard ESCRT-IIIA (Heimdallarchaeota archaeon AB_125), full length (natural protein)”, for which the time to reach plateau came to 160 s. As for “Fluorescently labelled Asgard ESCRT-IIIB (Heimdallarchaeota archaeon AB_125), full length (natural protein)”, the figure is over 1000 s.
